T1: FIV N-terminal capsid domain (feline immunodeficiency virus (FIV))
T1 chain: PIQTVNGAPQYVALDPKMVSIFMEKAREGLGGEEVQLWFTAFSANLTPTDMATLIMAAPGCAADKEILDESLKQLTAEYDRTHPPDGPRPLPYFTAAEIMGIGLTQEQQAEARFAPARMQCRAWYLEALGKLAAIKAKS


Columns and labels:
[1] = molecular target: T1, FIV N-terminal capsid domain; experiment: ITC
[2] = molecular target: HIV-1 M-group (NL4-3) N-terminal capsid domain (HIV-1 M-group (NL4-3)); experiment: ITC

Binder	Kd [1] [µM]	Kd [2] [µM]
cyclophilin domain from human NUP358 (domain or fragment) ELSKETNPVVFFDVCADGEPLGRITMELFSNIVPRTAENFRALCTGEKGFGFKNSIFHRVIPDFVCQGGDITKHDGTGGQSIYGDKFEDENFDVKHTGPGLLSMANQGQNTNNSQFVITLKKAEHLDFKHVVFGFVKDGMDTVKKIESFGSPKGSVCRRITITECGQI	290	–
NUP358Cyp V61M/V113F (domain or fragment) ELSKETNPVVFFDVCADGEPLGRITMELFSNIVPRTAENFRALCTGEKGFGFKNSIFHRVIPDFMCQGGDITKHDGTGGQSIYGDKFEDENFDVKHTGPGLLSMANQGQNTNNSQFFITLKKAEHLDFKHVVFGFVKDGMDTVKKIESFGSPKGSVCRRITITECGQI	–	31
NUP358Cyp V113F (domain or fragment) ELSKETNPVVFFDVCADGEPLGRITMELFSNIVPRTAENFRALCTGEKGFGFKNSIFHRVIPDFVCQGGDITKHDGTGGQSIYGDKFEDENFDVKHTGPGLLSMANQGQNTNNSQFFITLKKAEHLDFKHVVFGFVKDGMDTVKKIESFGSPKGSVCRRITITECGQI	–	92

— article PMC3750474 (2013)
